Results: patent publication US6602854B1, “Branched multimeric Apo A-I agonist compounds” (priority 1997, dated 2003)
Where no end group is shown, it is not given here. [ ]: non-standard residue; d: D form. Aib = CC(C)(N)C(=O)O

Assay: Circular dichroism: degree of helicity (free, SUVs, micelles, TFE)
Settings: for He (%) free: percent helicity of free, unbound peptide; for He (%) TFE: percent helicity of peptide-TFE solution; for He (%) mics: percent helicity of peptide-micelle complexes; for He (%) SUVs: percent helicity of peptide-SUV complexes
Protocol: Far UV circular dichroism spectra were recorded between 190 and 260 nm (in 0.5 nm or 0.2 nm increments) with a AVIV62DS spectrometer (AVIV Associates, Lakewood, N.J., USA) equipped with a thermoelectric cell holder and sample changer. The instrument was calibrated with (+)-10-camphoric acid. Between one and three scans were collected for each sample, using 10 cm, 5 cm, 1 cm and 0.1 cm path length quartz Suprasil cells, respectively, for peptide concentrations of 10^−7 M to 10^−4 M. The bandwidth was fixed at 1.5 nm and the scan speed to 1 s per wavelength step. The reported data are the mean of at least 2 or 3 independent measurements.
After background substraction, spectra were converted to molar ellipticity (θ) per residue in deg. […] dmol^−1. The peptide concentration was determined by amino acid analysis and also by absorption spectrometry on a Perkin Elmer Lambda 17 UV/Visible spectrophotometer when the peptide contained a chromophore (tryptophane, dansyl, naphtylalanine).
CD spectra were obtained with free, unbound peptide (5 μM in 5 mM phosphate buffer, pH 7.4); with peptide-SUV complexes (20:1 EPC:Chol., Ri=30 and Ri=50); with peptide-micelle complexes (1-myristoyl-2-hydroxy-sn-glycero-3-phosphatidyl choline, Ri=100); and with free, unbound peptide in the presence of 2,2,2-trifluoroethanol (TFE) (5 μM peptide, 90% vol TFE).
The SUVs were obtained by dispersing the lipids (10 mM, 20:1 EPC:Chol., Avanti Polar Lipids, Ala.) in phosphate buffer (5 mM, pH 7.4) with bubbling N2 for 5 min., followed by sonication (1.5 hr.) in a bath sonicator. The homogeneity of the preparation was checked by FPLC.
The micelles were obtained by dispersing the lipid (6 mM 1-myristoyl-2-hydroxy-sn-glycero-3-phosphatidyl choline, Avanti Polar Lipids, AL) in phosphate buffer (5 mM, pH 7.4) with bubbling N2 for 5 min., followed by vortexing.
To obtain the peptide-SUV complexes, SUVs were added to the peptide (5 μM in 5 mM phosphate buffer, pH 7.4) at a phospholipid-peptide molar ratio (Ri) of 30 or 50.
To obtain the peptide-micelle complexes, micelles were added to the peptide (5 μM in 5 mM phosphate buffer, pH 7.4) at a Ri of 100.
All spectra were recorded at 37° C. The stability of peptide 4 (SEQ ID NO:4) as a function of temperature (both free in buffer and in micelles) was determined by recording spectra at a series of different temperatures.
The degree of helicity of peptide 4 (SEQ ID NO:4) as a function of concentration was also determined.
The degree of helicity of the peptides in the various conditions was determined from the mean residue ellipticity at 222 nm (Chen et al., 1974, Biochemistry 13:3350-3359) or by comparing the CD spectra obtained to reference spectra available on databases (16 helical reference spectra from Provencher & Glockner, 1981, Biochemistry 20:33-37; denatured protein reference spectra from Venyaminov et al., 1993, Anal. Biochem. 214:17-24) using the CONTIN curve-fitting algorithm version 2DP, CD-1 pack (Aug. 1982) (Provencher, 1982, Comput. Phys. Commun. 27:213-227, 229-242). Acceptable fit was determined using the statistical analysis methodology provided by the CONTIN algorithm.

| Substance | He (%) free [%] | He (%) TFE [%] | He (%) mics [%] | He (%) SUVs [%] |
| --- | --- | --- | --- | --- |
| 31 (PVLDLFLELLNE[Aib]LEALKQKLK) [compound 31] | 49 | 90 | 98 |  |
| 35 (PVLDWFRELLNELLEALKQKLK) [compound 35] |  |  | 59 | 61 |
| 36 (PLLELLKELLQELLEALKQKLK) [compound 36] | 95 | 95 | 100 |  |
| 37 (PVLDLFREWLNELLEALKQKLK) [compound 37] | 65 | 73 | 75 | 76 |
| 38 (PVLDLFRELLNE[Aib]LEAWKQKLK) [compound 38] | 25 | 49 | 49 | 21 |
| 39 (PVLDLFRELLEELLKALKKKLK) [compound 39] | 66 | 72 | 69 | 68 |
| 40 (PVLDLFNELLRELLEALQKKLK) [compound 40] | 66 | 77 | 84 | 79 |
| 41 (PVLDLWRELLNE[Aib]LEALKQKLK) [compound 41] | 53 | 69 | 73 | 85 |
| 42 (PVLDEFREKLNE[Aib]WEALKQKLK) [compound 42] | 15 | 76 | 74 | 27 |
| 45 (PVLDEFREKLNE[Aib]LEALKQKLK) [compound 45] |  | 86 | 84 |  |
| 46 (PVLDLFREKLNE[Aib]LEALKQKLK) [compound 46] | 30 | 85 | 86 | 58 |
| 49 (PVLDLFRNLLEKLLEALEQKLK) [compound 49] | 57 | 57 | 65 | 52 |
| 50 (PVLDLFRELLWE[Aib]LEALKQKLK) [compound 50] | 68 | 76 | 84 | 89 |
| 51 (PVLDLFWELLNE[Aib]LEALKQKLK) [compound 51] | 63 | 73 | 82 | 81 |
| 54 (PVLDLFRELLNEWLEALKQKLK) [compound 54] | 76 | 78 | 71 | 84 |
| 55 (PLFRELLNELLEALKQKLK) [compound 55] | 38 | 75 | 72 | 78 |
| 60 (PVLDLFRELLNELLEALKQ) [compound 60] | 39 | 84 | 83 | 66 |
| 62 (PVLDEWREKLNE[Aib]LEALKQKLK) [compound 62] | 15 |  | 85 | 43 |
| 66 (PVLDLFRNLLEELLEALQKKLK) [compound 66] | 64 | 70 | 82 | 66 |
| 67 (VLDLFRELLNELLEALKQKLK) [compound 67] | 81 | 94 | 90 | 84 |
| 70 (PVLDEFRELLYE[Aib]LEALKQKLK) [compound 70] | 27 | 66 | 78 | 33 |
| 76 (PVLDEFRELLFE[Aib]LEALKQKLK) [compound 76] | 41 | 66 | 88 |  |
| 85 (PLDLFRELLNELLEALKQKLK) [compound 85] | 58 | 69 | 61 | 64 |

| Substance | He (%) free [%] | He (%) TFE [%] | He (%) mics [%] | He (%) SUVs [%] |
| --- | --- | --- | --- | --- |
| 91 (PVLDEFRELLNE[Aib]LEALKQKLK) [compound 91] | 43 | 100 | 100 |  |
| 99 (KLKQKLAELLENLLERFLDLVP) [compound 99] | 72 | 80 | 88 | 80 |
| 104 (PLLNELLEALKQKLK) [compound 104] | 21 | 55 | 49 | 29 |
| 105 (PAADAFREAANEAAEAAKQKAK) [compound 105] | 29 | 65 | 28 | 32 |
| 108 (PVLDLFRWLLNE[Aib]LEALKQKLK) [compound 108] | 28 | 54 | 55 |  |
| 113 (PVLDEFREKLNEPLEALKQKLK) [compound 113] | 6 |  | 22 |  |
| 146 (PVLELFENLLERLLDALQKKLK) [compound 146] | 97 | 95 | 100 | 100 |
| 148 (PVLELFENLLERLGDALQKKLK) [compound 148] | 10 | 80 | 76 | 23 |
| 149 (PVLELFENLWERLLDALQKKLK) [compound 149] | 28 | 47 | 54 |  |
| 154 (PVLELFENLLERGLDALQKKLK) [compound 154] | 13 | 80 | 76 | 25 |
| 160 (PVLELFENLLERLLDWLQKKLK) [compound 160] | 65 | 61 | 73 | 75 |
| 162 (PVLELFENWLERLLDALQKKLK) [compound 162] | 68 |  | 83 | 81 |
| 163 (PVLELFENLLERLWDALQKKLK) [compound 163] | 27 | 55 | 53 |  |
| 164 (PVLELFENLLERLLDAWQKKLK) [compound 164] | 37 | 61 | 66 | 51 |
| 192 (Ac-PVLDLFKELLEELKQKLK-NH2) [compound 192] | 36 | 56 |  |  |
| 193 (Ac-PVLDLFRELLEELKQKLK-NH2) [compound 193] | 34 | 87 | 88 | 87 |
| 194 (Ac-PVLELFRELLEELKQKLK-NH2) [compound 194] | 38 | 93 | 93 |  |
| 197 (Ac-PLLDLFRELLEELKQKLK-NH2) [compound 197] | 43 | 69 | 70 |  |
| 199 (Ac-PVLDLFRELWEELKQKLK-NH2) [compound 199] | 35 | 79 | 77 | 80 |
| 209 (PVLDLFRELLNELLQKLK) [compound 209] | 54 | 62 | 71 | 67 |
| 210 (PVLDLFRELLEELKQKLK) [compound 210] | 20 | 53 | 63 | 37 |
| 215 (Ac-PVLDLFRELLEEWKQKLK-NH2) [compound 215] | 28 | 68 | 63 | 53 |
| 217 (PVLDLFRELLELLKQKLK) [compound 217] | 52 | 70 | 78 | 76 |
